Measured values: patent publication US8663616B2, “Enzymatic peracid generation for use in oral care products” (E I du Pont de Nemours and Company, priority 2010, dated 2014)

Columns and labels:
[1] = Retention of perhydrolase on hydroxyapatite (SDS-PAGE band strength); assay type: binding; conditions: relative to enzyme input = 1
Protocol: Perhydrolase enzymes listed in Table 6 were assessed for binding to hydroxyapatite. A dispersion of hydroxyapatite nanoparticles (Aldrich 677418) was made at 0.5% solids in 10 mM phosphate buffer at pH 7.2. Enzyme stock solution was added to the hydroxyapatite dispersion to a final concentration of 10 μM and incubated for 30 min in a microcentrifuge tube with gentle agitation. Each sample was centrifuged for 5 min at 10000 rpm. The supernatant was removed and additional buffer was added. The particles were resuspended and transferred to a new tube. The process was repeated two additional times. Samples of the original input of enzyme, the supernatant removed from the particles with each wash step and the final particles were prepared for SDS-PAGE analysis by combining 60 μL of sample, 20 μL of LDS buffer and 8 μL of reducing agent (Nu-PAGE). Samples were heated at 85° C. for 10 min. 25 μL of each sample was loaded on a 4-12% BisTris gel (Invitrogen) and run at 115 volts for 1.5 h. The gel was removed and stained with a 1:1 dilution of Simply Blue stain (Invitrogen) overnight and destained for 4 h in deionized water. The gel was analyzed and detection of enzyme in each fraction was estimated based on the presence of a band. The results of the analysis are provided in Table 7 with an indication of the relative strength of each band in the gel compared to the enzyme input (input=1) to determine the strength of binding between the hydroxyapatite surface and each enzyme.

[2] = T. maritima C277S/C277T constructs, peracetic acid in solution (Example 11); assay type: biochemical; conditions: 0.5 μM enzyme, 100 mM triacetin, 100 mM H2O2, pH 7.2, 10 min, 37° C.; no enzyme 114
Protocol: (§1) The detection of peracetic acid followed the method described in Pinkernell et. al. (Analyst, 1997, 122, 567) using colorimetric detection of 2,2′-azino-bis(3-ethylbenzothiazoline(-6-sulfonate (ABTS) oxidation by peracetic acid. Following the formation of peracetic acid with the addition of triacetin and hydrogen peroxide, 90 μL of solution was added to 10 μL of 0.1 M H3PO4 in a well plate. 50 μL of 1 M acetic acid, 50 μL of 0.5 g/L ABTS and 50 μL of 0.002 g/L of KI was added. The solution was allowed to develop for 5 min. The absorbance of the solution was measured at 405 nm using a microplate reader. The peracetic acid concentration was calculated based on a standard curve developed simultaneously using peracetic acid reagent solution.
Perhydrolase enzymes listed in Table 5 were assessed for enzyme activity in solution as described in Example 7. The enzyme activity in solution was measured by making a 500 μl solution of 0.5 μM of each enzyme in 100 mM triacetin, 100 mM H2O2 and 10 mM phosphate buffer, pH 7.2. The solution was incubated for 10 min, at 37° C. After the reaction was stopped by mixing an aliquot with H3PO4, a 10 μL aliquot was removed for proper dilution, and then detected via ABTS oxidation as described in Example 7.

[3] = Peracetic acid generation from hydroxyapatite bound CE-7 perhydrolase fusions (Example 8); assay type: biochemical; conditions: hydroxyapatite particles exposed to 10 μM enzyme, washed; 100 mM triacetin, 100 mM H2O2, 30 min, 37° C.; no enzyme 30-118.8
Protocol: as §1
To assess binding of these constructs to hydroxyapatite, 33 mg of hydroxyapatite particles (Macro-prep Ceramic Hydroxyapatite TYPE I, 80 μm size BioRad, Hercules, Calif.), were washed with 10 mM phosphate buffer at pH 7.2. After removing the supernatant, enzyme stock solution was added to the hydroxyapatite dispersion to a final concentration of 10 μM and incubated for 30 min in a microcentrifuge tube with gentle agitation. Each sample was centrifuged for 1 min at 10000 rpm. The supernatant was removed and additional buffer was added. The particles were resuspended and transferred to a new tube. The process was repeated two additional times. The hydroxyapatite bound enzyme activity was measured by adding a 500 μl solution containing 100 mM triacetin, 100 mM H2O2 in 100 mM phosphate buffer, pH 7.2. The solution was incubated for 30 min, at 37° C. An aliquot was removed and mixed with H3PO4 and properly diluted for detection via ABTS oxidation as described in Example 7. The experiments were performed at different day with no enzyme as control for each experiment.

[4] = T. maritima C277S/C277T constructs, peracetic acid when bound to bovine enamel (Example 11); assay type: biochemical; conditions: bovine enamel exposed to 10 μM enzyme, 4 washes; 100 mM triacetin, 100 mM H2O2, 30 min, 37° C.; no enzyme 570
Protocol: as §1
The perhydrolase enzymes were also assessed for binding to bovine enamel substrates. Enamel substrates were prepared as described in Example 2 and 3. Each enamel block was hydrated in water for overnight at room temperature (˜22° C.). The enamel blocks were then equilibrated with 10 mM potassium phosphate buffer, pH7.2, for 10 min. The enamel substrates were rinsed 3 times the buffer. The enamel wells were filled with 500 μL of 10 μM enzyme solutions which was prepared by diluting in 10 mM phosphate buffer. The samples were incubated for 30 min with slow shaking at 37° C. The non-binding enzyme was removed by washing 4 times with phosphate buffer. Then, each enamel block was embedded inside a putty filled 24-well plate, with only the enamel top surface exposed. The perhydrolase activity from enamel bound enzyme was measured as described in Example 8. 100 μL reaction mixtures (100 mM phosphate buffer, pH7.2 and 100 mM H2O2 and 100 mM triacetin) was added on top of the enamel and incubated for 30 min at 37° C. A 90 μL aliquot was removed for detection via ABTS oxidation as noted in Example 8. Each sample data point represents an average of 3 independent enamel blocks.

B1: EZ-9: C277S-link1-H6, SEQ ID NO: 430 (protein)
chain: MAFFDLPLEELKKYRPERYEEKDFDEFWEETLAESEKFPLDPVFERMESHLKTVEAYDVTFSGYRGQRIKGWLLVPKLEEEKLPCVVQYIGYNGGRGFPHDWLFWPSMGYICFVMDTRGQGSGWLKGDTPDYPEGPVDPQYPGFMTRGILDPRTYYYRRVFTDAVRAVEAAASFPQVDQERIVIAGGSQGGGIALAVSALSKKAKALLCDVPFLCHFRRAVQLVDTHPYAEITNFLKTHRDKEEIVFRTLSYFDGVNFAARAKIPALFSVGLMDNISPPSTVFAAYNYYAGPKEIRIYPYNNHEGGGSFQAVEQVKFLKKLFEKGGPGSGGAGSPGSAGGPGSHHHHHH
Q: Which “Unbound (relative band strength)” value ([1]; 10 μM enzyme, 0.5% hydroxyapatite, pH 7.2) does the source give for B1 here?
A: 0.9

Q: What about the “HAP Particles (relative band strength)” value ([1]; enzyme retained on particles after washes) of the same molecule?
A: 0.05

Q: What about the “Wash1 (relative band strength)” value [1] of the same molecule?
A: 0.01

Q: What about the “Wash2 (relative band strength)” value [1] of the same molecule?
A: 0.00

Q: And the “Peracetic acid (ppm) In Solution” value [2]?
A: 5499 ppm

Q: What about the “Peracetic acid (ppm)” value [3] of the same molecule?
A: 1885.1 ppm

Q: What about the “Peracetic acid (ppm) On Enamel” value [4] of the same molecule?
A: 612 ppm

B2: EZ-12: T. maritima C277T variant, untargeted, SEQ ID NO: 437 (protein)
chain: MAFFDLPLEELKKYRPERYEEKDFDEFWEETLAESEKFPLDPVFERMESHLKTVEAYDVTFSGYRGQRIKGWLLVPKLEEEKLPCVVQYIGYNGGRGFPHDWLFWPSMGYICFVMDTRGQGSGWLKGDTPDYPEGPVDPQYPGFMTRGILDPRTYYYRRVFTDAVRAVEAAASFPQVDQERIVIAGGSQGGGIALAVSALSKKAKALLCDVPFLCHFRRAVQLVDTHPYAEITNFLKTHRDKEEIVFRTLSYFDGVNFAARAKIPALFSVGLMDNITPPSTVFAAYNYYAGPKEIRIYPYNNHEGGGSFQAVEQVKFLKKLFEKG
Q: With B2 as the molecule, how does the “Peracetic acid (ppm) In Solution” value [2] read?
A: 4918 ppm

Q: What about the “Peracetic acid (ppm) On Enamel” value [4] of the same molecule?
A: 612 ppm

B3: EZ-16: C277T-link1-HC263-H6, SEQ ID NO: 440 (protein)
chain: MAFFDLPLEELKKYRPERYEEKDFDEFWEETLAESEKFPLDPVFERMESHLKTVEAYDVTFSGYRGQRIKGWLLVPKLEEEKLPCVVQYIGYNGGRGFPHDWLFWPSMGYICFVMDTRGQGSGWLKGDTPDYPEGPVDPQYPGFMTRGILDPRTYYYRRVFTDAVRAVEAAASFPQVDQERIVIAGGSQGGGIALAVSALSKKAKALLCDVPFLCHFRRAVQLVDTHPYAEITNFLKTHRDKEEIVFRTLSYFDGVNFAARAKIPALFSVGLMDNITPPSTVFAAYNYYAGPKEIRIYPYNNHEGGGSFQAVEQVKFLKKLFEKGGPGSGGAGSPGSAGGPGSPSAQSQLPDKHSGLHERAPQRYGPEPEPEPEPIPEPPKEAPVVIEKPKPKPKPKPKPPAHDHKNQKETHQRHAAGSGGGGSPHHHHHH
Q: For B3, which “Peracetic acid (ppm) In Solution” value [2] is on record?
A: 6496 ppm

Q: What about the “Peracetic acid (ppm) On Enamel” value [4] of the same molecule?
A: 1832 ppm

B4: EZ-17: C277T-link2-H6, SEQ ID NO: 441 (protein)
chain: MAFFDLPLEELKKYRPERYEEKDFDEFWEETLAESEKFPLDPVFERMESHLKTVEAYDVTFSGYRGQRIKGWLLVPKLEEEKLPCVVQYIGYNGGRGFPHDWLFWPSMGYICFVMDTRGQGSGWLKGDTPDYPEGPVDPQYPGFMTRGILDPRTYYYRRVFTDAVRAVEAAASFPQVDQERIVIAGGSQGGGIALAVSALSKKAKALLCDVPFLCHFRRAVQLVDTHPYAEITNFLKTHRDKEEIVFRTLSYFDGVNFAARAKIPALFSVGLMDNITPPSTVFAAYNYYAGPKEIRIYPYNNHEGGGSFQAVEQVKFLKKLFEKGGSHHHHHH
Q: Which results are given for B4?
A: Peracetic acid (ppm) In Solution [2]: 5360 ppm; Peracetic acid (ppm) On Enamel [4]: 616 ppm

B5: EZ-14: C277T-link1-DenP308-H6, SEQ ID NO: 438 (protein)
chain: MAFFDLPLEELKKYRPERYEEKDFDEFWEETLAESEKFPLDPVFERMESHLKTVEAYDVTFSGYRGQRIKGWLLVPKLEEEKLPCVVQYIGYNGGRGFPHDWLFWPSMGYICFVMDTRGQGSGWLKGDTPDYPEGPVDPQYPGFMTRGILDPRTYYYRRVFTDAVRAVEAAASFPQVDQERIVIAGGSQGGGIALAVSALSKKAKALLCDVPFLCHFRRAVQLVDTHPYAEITNFLKTHRDKEEIVFRTLSYFDGVNFAARAKIPALFSVGLMDNITPPSTVFAAYNYYAGPKEIRIYPYNNHEGGGSFQAVEQVKFLKKLFEKGGPGSGGAGSPGSAGGPGSTKPPRTPTANTSRPHHNFGSGGGGSPHHHHHH
Q: With B5 as the molecule, how does the “Peracetic acid (ppm) In Solution” value [2] read?
A: 4689 ppm

Q: What about the “Peracetic acid (ppm) On Enamel” value [4] of the same molecule?
A: 1418 ppm

B6: EZ-18: C277T-link1-(GK)5-H6, SEQ ID NO: 442 (protein)
chain: MAFFDLPLEELKKYRPERYEEKDFDEFWEETLAESEKFPLDPVFERMESHLKTVEAYDVTFSGYRGQRIKGWLLVPKLEEEKLPCVVQYIGYNGGRGFPHDWLFWPSMGYICFVMDTRGQGSGWLKGDTPDYPEGPVDPQYPGFMTRGILDPRTYYYRRVFTDAVRAVEAAASFPQVDQERIVIAGGSQGGGIALAVSALSKKAKALLCDVPFLCHFRRAVQLVDTHPYAEITNFLKTHRDKEEIVFRTLSYFDGVNFAARAKIPALFSVGLMDNITPPSTVFAAYNYYAGPKEIRIYPYNNHEGGGSFQAVEQVKFLKKLFEKGGPGSGGAGSPGSAGGPGSGKGKGKGKGKHHHHHH
Q: Which results are given for B6?
A: Peracetic acid (ppm) In Solution [2]: 5537 ppm; Peracetic acid (ppm) On Enamel [4]: 1158 ppm

B7: EZ-15: C277T-link1-H6, SEQ ID NO: 439 (protein)
chain: MAFFDLPLEELKKYRPERYEEKDFDEFWEETLAESEKFPLDPVFERMESHLKTVEAYDVTFSGYRGQRIKGWLLVPKLEEEKLPCVVQYIGYNGGRGFPHDWLFWPSMGYICFVMDTRGQGSGWLKGDTPDYPEGPVDPQYPGFMTRGILDPRTYYYRRVFTDAVRAVEAAASFPQVDQERIVIAGGSQGGGIALAVSALSKKAKALLCDVPFLCHFRRAVQLVDTHPYAEITNFLKTHRDKEEIVFRTLSYFDGVNFAARAKIPALFSVGLMDNITPPSTVFAAYNYYAGPKEIRIYPYNNHEGGGSFQAVEQVKFLKKLFEKGGPGSGGAGSPGSAGGPGSHHHHHH
Q: With B7 as the molecule, how does the “Peracetic acid (ppm) In Solution” value [2] read?
A: 5921 ppm

Q: And the “Peracetic acid (ppm) On Enamel” value [4]?
A: 631 ppm
